Experimental data as given in the DeepSol protein solubility set.

experiment: soluble on expression in E. coli; label from the status in PepcDB or PDB records

Sequence | soluble on expression in E. coli
GMLTGKHVVIIGGDARQLEIIRKLSTFDAKISLVGFDQLDDGFIGVTKMRIDEVDWNTVDAILLPISGTNEAGKVDTIFSNESIVLTEEMIEKTPNHCVVYSGISNTYLNQCMKKTNRTLVKLMERDDIAIYNSIPTAEGTIMMAIQHTDFTIHGANVAVLGLGRVGMSVARKFAALGAKVKVGARESDLLARIAEMGMEPFHISKAAQELRDVDVCINTIPALVVTANVLAEMPSHTFVIDLASKPGGTDFRYAEKRGIKALLVPGLPGIVAPKTAGRILADVLVKLLAEPS | soluble
MAHHHHHHMGLKFYVLVFLILCLKNVVKGDKCETEFSKLYPESNSLTGLIYAHTANVHKLSMWVYFIYNHFSSADELIKYLEKTNINTLENSDHTCFARAVTLYLFYYYLKDIKSMLSTDDYQSFFKNKFKDINPLFINDFILILNDKKFMENLDLYIMKESEREHLVIKKNPFLRVLNKASTTTHATYKSNPYFIVGSRVHTPYKDYLGDFNKYTEISVLNYVRDYNFLIYAGSRENYYNSDIAGPARSVNNVISKNKTLGLRKRSSSLALVGTNNNDPIFAYCEKDNKSEYYGTPDDLITSFFSIIKTKMLNSHKTFLRQFDYALFHKTYSIPNLKGFRFLKHLFQKKNLVNFVGMYENHVSTEINFLAEDFVELFDVTMDCYSRQYSNRAAENFKAIRELNVL | not soluble
MVQSSSVLREPSMDEILTSIREIIEENAVHPDYFSNEGAAGNSSRENLEIPSEGVYDTSLSVDDAMKALADRIGLSSENHDFSLTKDKESIEAENNTVGVDMQKMKRSSEEQSSVHRTQEHNKPFSQSENVIAGHVELSAYCISSAEKIAKDVLRPAIAEWLQHKLPVLLEDILREEIVRAIKKSS | not soluble
MKPLSSQLNMKINDFYLPLLPVIGTGRLYITSKGHACHAYFREVSGHGIRFTLTYSGYEGRFWISEEQFIQWCQELFPYSESRLIPEDTIKLMILWVMQTALPEGDVSVDDVQFTMLNKDIYPVIENNNGENRLNVIILETTVQSLQYLINDNWQLVPHSNALFFDGYIVPGWTDYPVTELRVGDSLRLYHVDDSQERRCWIVINTPLATVNLSDNNLSVTDVLAADLLSALSNETVMNRIYCAIGTVHIDIHMLRNVKKDDIINSDGYHLFGGCQLIRNNTTIAYGSIVKINEDFYFTVSIVCD | soluble
MQFSKMHGLGNDFMVVDAVTQNVYFSPELIRRLADRHTGVGFDQMLVVEPPYDPELDFHYRIFNADGSEVSQCGNGARCFARFVRLKGLTNKREISVSTQTGRMILSVTEDEQVCVNMGEPDFEPQTVPFRAAKAEKTYILRAAEHTVLCGVVSMGNPHCVMQVDDVSVANVALLGPVLENHERFPERANIGFMQVVSRDHIRLRVYERGAGETQACGSGACAAVAVGVVQDLLNENVHVELPGGSLHIRWQGPGHPLYMTGPATHVYDGFIHL | not soluble
MNYHQYYPVDVVNGPGTRCSLFVAGCVHECVGCYNKSTWRLNSGQPFTQEQEDRIIADLQDKLIPRQGISLSGGDPLHPQNVPDILRLVERIRAECPGKDIWVWTGYVLADITREQQRVVDLINVLVDGKFVQDLKDPALIWRGSSNQVVHRLRLEHHHHHH | not soluble
MGSDKIHHHHHHENLYFQGMARTAEEQANHDLVIEMYNKVLIAMDSSAVDRYIAPGYVQHSSLAEPSVEALKGFLDRVRAESPDARQTIHRSFVDGDHVITHTHVERWPGDAGLAVVDIFRVEGGMIVEHWDVIQDVPANPVNPNSMF | soluble
MGSDKIHHHHHHMSTNISLFAQVIRLLPRPLIKKLSTEFQVDKHSKHFTSWQHLVSMIFSQFSSCISLREISNGLRSATGNLNHLGICTAPSKSNLSYQNEHRTSDFFRACYYALLDYFGQQGMGQGRKFRFKQPVKLLDSTTITLCLALYDWAKYTHTKGAVKLHTLLDFKTLLPEYVHISDGKGHDGKMANSIPIPAGSIVVADRGYADTALLNSWDSTQVSFVVRHPRSLKYEVIQELELPEHGHQQILVDQRVRLTGVQTQGKYTKPLRHIALYNEQHGDVVELLTNIDTLAASSIALLYRSRWLIEIFFRNLKQRLSMKAFLGTTRNAVEVQIWTALITMLLMVYLKSIAKYRWCLSNLVSSLRINTFTKMDLMQWLNEPFTPPPEPENQLF | not soluble
MAHHHHHHMSDHEMYDNIDAGASQTYPVQAGAIKKNGHVMLKEHPCKVVDYSTSKTGKHGHAKAHIVGIDIFTGRKYEDICPTSHNMDVPVVKRTELQLIDITEDGFVSLLYDNGDTKDDLSLPKDTEGNLDEVAKQIRNLFDNGKSVLVSVLSACGQEKIIAAKELSS | soluble
